In patent US20030129186A1:

Target: p97 receptor (melanotransferrin receptor, MTf-R) on bovine brain capillary endothelial cells (BBCECs) (bovine)
Experiment: cell-based or functional assay

- decrease in initial rate of [125I]-p97 transport across BBCEC monolayers with recombinant RAP (25 µg/ml): > 50%
Substance: recombinant receptor-associated protein (RAP)
